In US20160264649A1:

What was measured:
Assay in all cases: cell-based or functional assay
[1] = molecular target: HIV-1 Env of pseudovirus isolate MGRM-G-028 (subtype G) (HIV-1)
[2] = molecular target: HIV-1 Env of isolate MGRM-F1-010 (subtype F) (HIV-1)
[3] = molecular target: HIV-1 Env of isolate MGRM-AE-002 (subtype AE) (HIV-1)
[4] = molecular target: HIV-1 Env of isolate MGRM-D-002 (subtype D) (HIV-1)
[5] = molecular target: HIV-1 Env of isolate 92WR021 (subtype A) (HIV-1)
[6] = molecular target: HIV-1 Env of isolate MGRM-Chronic-B-004 (subtype B) (HIV-1)
[7] = molecular target: HIV-1 Env of pseudovirus isolate MGRM-G-016 (subtype G) (HIV-1)
[8] = molecular target: HIV-1 Env of isolate MGRM-F1-013 (subtype F) (HIV-1)
[9] = molecular target: HIV-1 Env of isolate 92UG114 (subtype D) (HIV-1)
[10] = molecular target: HIV-1 Env of isolate MGRM-F1-016 (subtype F) (HIV-1)
[11] = molecular target: HIV-1 Env of isolate 94 KE 105 (subtype AC) (HIV-1)
[12] = molecular target: HIV-1 Env of isolate MGRM-AE-005 (subtype AE) (HIV-1)
[13] = molecular target: HIV-1 Env of isolate MGRM-D-014 (subtype D) (HIV-1)
[14] = molecular target: HIV-1 Env of isolate 98CN009 (subtype CRF07_BC) (HIV-1)
[15] = molecular target: HIV-1 Env of isolate MGRM-AE-006 (subtype AE) (HIV-1)
[16] = molecular target: HIV-1 Env of isolate MGRM-D-026 (subtype D) (HIV-1)
[17] = molecular target: HIV-1 Env of isolate MGRM-F1-020 (subtype F) (HIV-1)
[18] = molecular target: HIV-1 Env of isolate MGRM-D-012 (subtype D) (HIV-1)
[19] = molecular target: HIV-1 Env of isolate MGRM-Chronic-B-012 (subtype B) (HIV-1)
[20] = molecular target: HIV-1 Env of isolate MG RM-C-026 (subtype C) (HIV-1)
[21] = molecular target: HIV-1 Env of isolate 98IN022 (subtype C) (HIV-1)
[22] = molecular target: HIV-1 Env of isolate MGRM-Chronic-B-018 (subtype B) (HIV-1)
[23] = molecular target: HIV-1 Env of isolate MGRM-D-005 (subtype D) (HIV-1)
[24] = molecular target: HIV-1 Env of isolate 6535.3 (subtype B) (HIV-1)
[25] = molecular target: HIV-1 Env of isolate 92WR024 (subtype A) (HIV-1)
[26] = molecular target: HIV-1 Env of isolate MGRM-F1-012 (subtype F) (HIV-1)
[27] = molecular target: HIV-1 Env of isolate MGRM-Chronic-B-002 (subtype B) (HIV-1)
[28] = molecular target: HIV-1 Env of pseudovirus isolate MGRM-G-009 (subtype G) (HIV-1)
[29] = molecular target: HIV-1 Env of isolate THR0.18 (subtype B) (HIV-1)
[30] = molecular target: HIV-1 Env of isolate MGRM-AE-003 (subtype AE) (HIV-1)
[31] = molecular target: HIV-1 Env of isolate 94UG103 (subtype A) (HIV-1)
[32] = molecular target: HIV-1 Env of isolate 93IN905 (subtype C) (HIV-1)
[33] = molecular target: HIV-1 Env of pseudovirus isolate MGRM-G-001 (subtype G) (HIV-1)
[34] = molecular target: HIV-1 Env of isolate VLGCA1 (subtype A) (HIV-1)
[35] = molecular target: HIV-1 Env of pseudovirus isolate MGRM-G-006 (subtype G) (HIV-1)
[36] = molecular target: HIV-1 Env of isolate JRCSF (subtype B) (HIV-1) (UniProt P20871)
[37] = molecular target: HIV-1 Env of isolate CAAN.A2 (subtype B) (HIV-1)
[38] = molecular target: HIV-1 Env of isolate MGRM-AE-004 (subtype AE) (HIV-1)
[39] = molecular target: HIV-1 Env of isolate MGRM-AE-001 (subtype AE) (HIV-1)
[40] = molecular target: HIV-1 Env of isolate 93TH305 (subtype B) (HIV-1)
[41] = molecular target: HIV-1 Env of isolate MGRM-F1-018 (subtype F) (HIV-1)
[42] = molecular target: HIV-1 Env of isolate 92TH021 (subtype AE) (HIV-1)
[43] = molecular target: HIV-1 Env of isolate MGRM-D-024 (subtype D) (HIV-1)
[44] = molecular target: HIV-1 Env of isolate MG RM-C-019 (subtype C) (HIV-1)
[45] = molecular target: HIV-1 Env of isolate MGRM-AE-008 (subtype AE) (HIV-1)
[46] = molecular target: HIV-1 Env of pseudovirus isolate MGRM-G-024 (subtype G) (HIV-1)

Substance PGV04 (antibody) has an IC50 [1] of 0.352 µg/mL, an IC50 (pseudovirus neutralization) [2] of 0.184 µg/mL and an IC50 (pseudovirus neutralization) [3] of 0.569 µg/mL. For the same substance, the IC50 (pseudovirus neutralization) [4] was 0.322 µg/mL, the IC50 (pseudovirus neutralization) [5] was 0.038 µg/mL and the IC50 [6] was 0.047 µg/mL. For the same substance, the IC50 [7] was 0.019 µg/mL, the IC50 (pseudovirus neutralization) [8] was 0.084 µg/mL and the IC50 (pseudovirus neutralization) [9] was 0.461 µg/mL. The IC50 (pseudovirus neutralization) [10] was 0.268 µg/mL, the IC50 (pseudovirus neutralization) [11] was 2.98 µg/mL and the IC50 (pseudovirus neutralization) [12] was 0.051 µg/mL. For the same substance, the IC50 (pseudovirus neutralization) [13] was 0.194 µg/mL, the IC50 (neutralization) [14] was 0.0125 µg/mL and the IC50 (pseudovirus neutralization) [15] was over 50 µg/mL. It also gave an IC50 (pseudovirus neutralization) [16] of 1.76 µg/mL, an IC50 (pseudovirus neutralization) [17] of 5.99 µg/mL and an IC50 (pseudovirus neutralization) [18] of 0.125 µg/mL. It also gave an IC50 [19] of over 50 µg/mL, an IC50 (µg/mL), pseudovirus neutralization [20] of 0.303 µg/mL and an IC50 (µg/mL), pseudovirus neutralization [21] of 5.69 µg/mL. For the same substance, the IC50 [22] was 0.164 µg/mL, the IC50 (pseudovirus neutralization) [23] was over 50 µg/mL and the IC50 [24] was 0.757 µg/mL. It also gave an IC50 (pseudovirus neutralization) [25] of 0.31 µg/mL, an IC50 (pseudovirus neutralization) [26] of 0.25 µg/mL and an IC50 [27] of 0.142 µg/mL. The IC50 [28] was 0.043 µg/mL, the IC50 (µg/mL), pseudovirus neutralization [29] was over 50 µg/mL and the IC50 (pseudovirus neutralization) [30] was 6.4 µg/mL. For the same substance, the IC50 (pseudovirus neutralization) [31] was 0.202 µg/mL, the IC50 (µg/mL), pseudovirus neutralization [32] was 0.332 µg/mL and the IC50 [33] was over 50 µg/mL. It also gave an IC50 (pseudovirus neutralization) [34] of 0.024 µg/mL, an IC50 [35] of 0.083 µg/mL and an IC50 (µg/mL), pseudovirus neutralization [36] of 0.078 µg/mL. It also gave an IC50 [37] of 2.26 µg/mL, an IC50 (pseudovirus neutralization) [38] of 0.183 µg/mL and an IC50 (pseudovirus neutralization) [39] of 0.063 µg/mL. The IC50 [40] was 0.255 µg/mL, the IC50 (pseudovirus neutralization) [41] was 0.027 µg/mL and the IC50 (pseudovirus neutralization) [42] was 1.29 µg/mL. The IC50 (pseudovirus neutralization) [43] was over 50 µg/mL, the IC50 (µg/mL), pseudovirus neutralization [44] was 9.63 µg/mL and the IC50 (pseudovirus neutralization) [45] was 1.51 µg/mL. For the same substance, the IC50 [46] was 0.033 µg/mL.
In the case of VRC01 (antibody), the IC50 [1] was 0.164 µg/mL, the IC50 (pseudovirus neutralization) [2] was 0.097 µg/mL and the IC50 (pseudovirus neutralization) [3] was 0.217 µg/mL. It also gave an IC50 (pseudovirus neutralization) [4] of 0.252 µg/mL, an IC50 (pseudovirus neutralization) [5] of 0.066 µg/mL and an IC50 [6] of 0.055 µg/mL. The IC50 [7] was 0.063 µg/mL, the IC50 (pseudovirus neutralization) [8] was 0.17 µg/mL and the IC50 (pseudovirus neutralization) [9] was 0.33 µg/mL. For the same substance, the IC50 (pseudovirus neutralization) [10] was 0.517 µg/mL, the IC50 (pseudovirus neutralization) [11] was 0.499 µg/mL and the IC50 (pseudovirus neutralization) [12] was 0.029 µg/mL. The IC50 (pseudovirus neutralization) [13] was 0.332 µg/mL, the IC50 (neutralization) [14] was 0.346 µg/mL and the IC50 (pseudovirus neutralization) [15] was 4.65 µg/mL. The IC50 (pseudovirus neutralization) [16] was 0.435 µg/mL, the IC50 (pseudovirus neutralization) [17] was 1.89 µg/mL and the IC50 (pseudovirus neutralization) [18] was 0.216 µg/mL. The IC50 [19] was 1.03 µg/mL, the IC50 [20] was 0.707 µg/mL and the IC50 [21] was 0.342 µg/mL. The IC50 [22] was 0.328 µg/mL, the IC50 (pseudovirus neutralization) [23] was over 50 µg/mL and the IC50 [24] was 1.75 µg/mL. For the same substance, the IC50 (pseudovirus neutralization) [25] was 0.327 µg/mL, the IC50 (pseudovirus neutralization) [26] was 0.488 µg/mL and the IC50 [27] was 0.117 µg/mL. It also gave an IC50 [28] of 0.073 µg/mL, an IC50 [29] of 2.46 µg/mL and an IC50 (pseudovirus neutralization) [30] of 0.685 µg/mL. It also gave an IC50 (pseudovirus neutralization) [31] of 0.285 µg/mL, an IC50 [32] of 0.138 µg/mL and an IC50 [33] of 0.0371 µg/mL. The IC50 (pseudovirus neutralization) [34] was 0.163 µg/mL, the IC50 [35] was 0.055 µg/mL and the IC50 [36] was 0.164 µg/mL. The IC50 [37] was 0.722 µg/mL, the IC50 (pseudovirus neutralization) [38] was 0.187 µg/mL and the IC50 (pseudovirus neutralization) [39] was 0.167 µg/mL. The IC50 [40] was 0.243 µg/mL, the IC50 (pseudovirus neutralization) [41] was 0.032 µg/mL and the IC50 (pseudovirus neutralization) [42] was 0.616 µg/mL. For the same substance, the IC50 (pseudovirus neutralization) [43] was 0.366 µg/mL, the IC50 [44] was 1.13 µg/mL and the IC50 (pseudovirus neutralization) [45] was 1.72 µg/mL. For the same substance, the IC50 [46] was 0.025 µg/mL.
